T1: pGEX-6P-1-EtMIC3 recombinant protein (E. tenella, UniProt B6VCV4 1-988)
T1 sequence (looked up): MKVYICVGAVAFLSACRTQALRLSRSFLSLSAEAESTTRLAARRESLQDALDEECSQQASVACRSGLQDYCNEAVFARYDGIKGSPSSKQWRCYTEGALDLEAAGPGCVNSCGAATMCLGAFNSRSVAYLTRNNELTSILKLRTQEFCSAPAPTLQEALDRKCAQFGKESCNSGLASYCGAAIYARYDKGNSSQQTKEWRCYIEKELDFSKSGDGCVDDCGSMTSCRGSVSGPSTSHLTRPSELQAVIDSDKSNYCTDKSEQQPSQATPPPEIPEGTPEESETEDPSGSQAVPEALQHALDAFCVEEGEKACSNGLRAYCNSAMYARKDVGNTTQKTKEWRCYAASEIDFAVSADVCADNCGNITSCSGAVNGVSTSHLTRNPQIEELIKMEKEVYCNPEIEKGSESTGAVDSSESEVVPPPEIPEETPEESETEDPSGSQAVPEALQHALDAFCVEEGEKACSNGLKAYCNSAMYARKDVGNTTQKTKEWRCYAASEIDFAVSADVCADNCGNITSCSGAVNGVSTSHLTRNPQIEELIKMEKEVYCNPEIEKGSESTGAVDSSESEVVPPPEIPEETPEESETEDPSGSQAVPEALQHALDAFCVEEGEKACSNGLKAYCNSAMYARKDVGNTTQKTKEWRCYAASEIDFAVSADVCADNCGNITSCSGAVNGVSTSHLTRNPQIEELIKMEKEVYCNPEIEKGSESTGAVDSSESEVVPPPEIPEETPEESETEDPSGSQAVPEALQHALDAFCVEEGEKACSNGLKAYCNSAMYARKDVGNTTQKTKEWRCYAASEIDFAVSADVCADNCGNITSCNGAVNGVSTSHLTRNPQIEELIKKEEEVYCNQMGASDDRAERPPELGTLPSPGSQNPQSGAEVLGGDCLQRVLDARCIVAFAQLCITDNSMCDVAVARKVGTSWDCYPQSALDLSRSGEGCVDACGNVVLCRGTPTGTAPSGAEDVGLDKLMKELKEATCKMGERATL

B1: recombinant BAG1 expressed from pET-32a-BAG1 (natural protein, chicken, UniProt F1NPL0 1-209, looked up)
chain: MAVPGAPVSVTVTYSNEKHNIQVASQQEDGEPTLQDMAVLIEQVTGVPVSFQKLIYKGKSLKELEQPLSALGVKNGCKVMLIGKRNSPEEEAELKKLKDLEKSVEQIANKLEEVNKEFTSIQKGFLAKDLQAEALKQLDKRIKGTAEQFMKILEQVDAINLPENFNDCRLKKKGLVKRVQAFLAQCDTVEGNIGQEMDKLQSKNLALAE
B2: recombinant ENDOUL expressed from pET-32a-ENDOUL (natural protein, chicken, UniProt A0A8V0YKR0 1-289, looked up)
chain: MADRKALNHELSKLFNEMWDMDVNRFTPGKDYAIELQGKADAVLQGDSVVQDSAARHLFHYVNEERLKNIKTFATFISLLDNYETSTGVEEIVTPEEIAENNCFLDAILMTGVMKLAHEYLLKKKLAKPNLADFKYQLYDIWFQLYPRKEGDRPDSCGFEHVFVGETRRGKQILGLHNWVQFYLQEKHKQIDYKGYIARKNKTRPDRDDQVLSIQFSWKGSVKPIGSTFIGVSPEFEFALYTVIFLLSEERVTRKTVKIEEYELQIVVCRHGRHIGTAYPVLLNTSNED

Molecular target: T1, pGEX-6P-1-EtMIC3 recombinant protein
Experiment: cell-based or functional assay

Binder | oocyst decrease ratio (%) in chickens challenged with 5 × 10^4 E. tenella sporulated oocysts and injected intravenously with anti-BAG1 serum every day for 7 days [%] | oocyst decrease ratio (%) in chickens challenged with 5 × 10^4 E. tenella sporulated oocysts and injected intravenously with anti-ENDOUL serum every day for 7 days [%]
B1 | 3.63 | –
B2 | – | 5.07
